Experimental data from the supplement of paper PMC9112550, “Optimization of the antimicrobial peptide Bac7 by deep mutational scanning” (BMC Biology, 2022).

Tested on: Escherichia coli TOP10
Assay: shrunken log2 fold change of peptide-encoding DNA abundance (4.5 h post-induction vs induction); higher = less antimicrobial activity (less host growth inhibition)
Conditions: time post-induction: 4.5 h; library: site-saturation at positions 5, 18, 19, 20
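Also: peptides expressed intracellularly from a pBAD plasmid library in pooled LB shake-flask culture, induced with 0.3% L-arabinose, DNA abundance read by NGS, three biological replicates, DESeq2 with apeglm shrinkage.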

## RRIRNRPPRLPRPRPRPRCRPRP
  shrunken log2 fold change: 0.104

## RRIRYRPPRLPRPRPRPCLKPRP
  shrunken log2 fold change: -0.0431

## RRIRVRPPRLPRPRPRPAHYPRP
  shrunken log2 fold change: -0.113

## RRIRVRPPRLPRPRPRPHGYPRP
  shrunken log2 fold change: -0.298

## RRIRWRPPRLPRPRPRPMHPPRP
  shrunken log2 fold change: 0.224

## RRIRRRPPRLPRPRPRPHMHPRP
  shrunken log2 fold change: -0.083

## RRIRCRPPRLPRPRPRPAMPPRP
  shrunken log2 fold change: -0.054

## RRIRFRPPRLPRPRPRPDYYPRP
  shrunken log2 fold change: -1.21

## RRIRCRPPRLPRPRPRPHCPPRP
  shrunken log2 fold change: -0.508

## RRIRARPPRLPRPRPRPESGPRP
  shrunken log2 fold change: 0.793

## RRIRQRPPRLPRPRPRPQGKPRP
  shrunken log2 fold change: -0.0747

## RRIRTRPPRLPRPRPRPQVDPRP
  shrunken log2 fold change: -0.0209

## RRIRVRPPRLPRPRPRPVMMPRP
  shrunken log2 fold change: -0.938

## RRIRRRPPRLPRPRPRPMWNPRP
  shrunken log2 fold change: 0.00386

## RRIRYRPPRLPRPRPRPCPIPRP
  shrunken log2 fold change: 0.0143

## RRIRRRPPRLPRPRPRPHGAPRP
  shrunken log2 fold change: 0.284

## RRIRDRPPRLPRPRPRPIENPRP
  shrunken log2 fold change: -0.144

## RRIRARPPRLPRPRPRPFIMPRP
  shrunken log2 fold change: -0.507

## RRIRMRPPRLPRPRPRPPTHPRP
  shrunken log2 fold change: 0.696

## RRIRVRPPRLPRPRPRPTHLPRP
  shrunken log2 fold change: 0.37

## RRIRTRPPRLPRPRPRPIKIPRP
  shrunken log2 fold change: -0.426

## RRIRIRPPRLPRPRPRPCCEPRP
  shrunken log2 fold change: -0.731

## RRIRIRPPRLPRPRPRPHNAPRP
  shrunken log2 fold change: -0.549

## RRIRHRPPRLPRPRPRPGLQPRP
  shrunken log2 fold change: 0.157

## RRIRLRPPRLPRPRPRPTAVPRP
  shrunken log2 fold change: 0.0335

## RRIRFRPPRLPRPRPRPGGVPRP
  shrunken log2 fold change: 0.106

## RRIRERPPRLPRPRPRPGPVPRP
  shrunken log2 fold change: 0.137

## RRIRMRPPRLPRPRPRPNYDPRP
  shrunken log2 fold change: -0.149

## RRIRHRPPRLPRPRPRPAIAPRP
  shrunken log2 fold change: 0.0527

## RRIRHRPPRLPRPRPRPTDEPRP
  shrunken log2 fold change: -0.123

## RRIRERPPRLPRPRPRPFYEPRP
  shrunken log2 fold change: -0.498

## RRIRMRPPRLPRPRPRPLEPPRP
  shrunken log2 fold change: 0.261

## RRIRHRPPRLPRPRPRPALPPRP
  shrunken log2 fold change: 0.0229

## RRIRWRPPRLPRPRPRPTQKPRP
  shrunken log2 fold change: 0.482

## RRIRGRPPRLPRPRPRPADLPRP
  shrunken log2 fold change: 0.604

## RRIRIRPPRLPRPRPRPNYEPRP
  shrunken log2 fold change: -0.396

## RRIRERPPRLPRPRPRPEIGPRP
  shrunken log2 fold change: -0.166

## RRIRWRPPRLPRPRPRPKQAPRP
  shrunken log2 fold change: 0.413

## RRIRLRPPRLPRPRPRPLNLPRP
  shrunken log2 fold change: -0.381

## RRIRWRPPRLPRPRPRPYFCPRP
  shrunken log2 fold change: -0.298

## RRIRNRPPRLPRPRPRPRDGPRP
  shrunken log2 fold change: 0.292

## RRIRLRPPRLPRPRPRPLNYPRP
  shrunken log2 fold change: -0.501

## RRIRKRPPRLPRPRPRPHNWPRP
  shrunken log2 fold change: 0.172

## RRIRYRPPRLPRPRPRPSMHPRP
  shrunken log2 fold change: -0.601

## RRIRERPPRLPRPRPRPKCQPRP
  shrunken log2 fold change: -0.178

## RRIRRRPPRLPRPRPRPHTTPRP
  shrunken log2 fold change: -0.303

## RRIRQRPPRLPRPRPRPARSPRP
  shrunken log2 fold change: 0.0407

## RRIRGRPPRLPRPRPRPIHQPRP
  shrunken log2 fold change: -0.0704

## RRIRSRPPRLPRPRPRPILSPRP
  shrunken log2 fold change: -0.329

## RRIRSRPPRLPRPRPRPMLCPRP
  shrunken log2 fold change: -0.121

## RRIRMRPPRLPRPRPRPAAVPRP
  shrunken log2 fold change: 1.44

## RRIRSRPPRLPRPRPRPQAYPRP
  shrunken log2 fold change: 0.0251

## RRIRERPPRLPRPRPRPTFVPRP
  shrunken log2 fold change: 0.0579

## RRIRGRPPRLPRPRPRPYETPRP
  shrunken log2 fold change: 0.16

## RRIRPRPPRLPRPRPRPVKFPRP
  shrunken log2 fold change: 0.184

## RRIRLRPPRLPRPRPRPASLPRP
  shrunken log2 fold change: 0.105

## RRIRQRPPRLPRPRPRPSENPRP
  shrunken log2 fold change: -0.0264

## RRIRQRPPRLPRPRPRPMKGPRP
  shrunken log2 fold change: 0.0391

## RRIRGRPPRLPRPRPRPSWWPRP
  shrunken log2 fold change: 0.537

## RRIRPRPPRLPRPRPRPEELPRP
  shrunken log2 fold change: 0.0725

## RRIRCRPPRLPRPRPRPFKGPRP
  shrunken log2 fold change: 0.0401

## RRIRHRPPRLPRPRPRPRSEPRP
  shrunken log2 fold change: 0.117

## RRIRMRPPRLPRPRPRPNKMPRP
  shrunken log2 fold change: -0.134

## RRIRVRPPRLPRPRPRPADYPRP
  shrunken log2 fold change: 0.0436

## RRIRERPPRLPRPRPRPQFWPRP
  shrunken log2 fold change: 0.172

## RRIRNRPPRLPRPRPRPDNLPRP
  shrunken log2 fold change: -1.04

## RRIRTRPPRLPRPRPRPWCAPRP
  shrunken log2 fold change: -0.203

## RRIRPRPPRLPRPRPRPTVPPRP
  shrunken log2 fold change: -0.0252

## RRIRKRPPRLPRPRPRPCDPPRP
  shrunken log2 fold change: 0.121

## RRIRYRPPRLPRPRPRPNYYPRP
  shrunken log2 fold change: -1.16

## RRIRERPPRLPRPRPRPAMLPRP
  shrunken log2 fold change: -0.155

## RRIRWRPPRLPRPRPRPWTMPRP
  shrunken log2 fold change: -0.146

## RRIRERPPRLPRPRPRPHVIPRP
  shrunken log2 fold change: -0.133

## RRIRHRPPRLPRPRPRPHCQPRP
  shrunken log2 fold change: -0.0776

## RRIRNRPPRLPRPRPRPHDHPRP
  shrunken log2 fold change: 0.171

## RRIRVRPPRLPRPRPRPKEPPRP
  shrunken log2 fold change: 0.0639

## RRIRRRPPRLPRPRPRPYEYPRP
  shrunken log2 fold change: -0.206

## RRIRARPPRLPRPRPRPLYSPRP
  shrunken log2 fold change: -0.122

## RRIRPRPPRLPRPRPRPMMMPRP
  shrunken log2 fold change: -0.167

## RRIRHRPPRLPRPRPRPHCSPRP
  shrunken log2 fold change: -0.124

## RRIRQRPPRLPRPRPRPRTLPRP
  shrunken log2 fold change: 0.0409

## RRIRTRPPRLPRPRPRPQQEPRP
  shrunken log2 fold change: 0.0173

## RRIRERPPRLPRPRPRPNGTPRP
  shrunken log2 fold change: -0.0811

## RRIRERPPRLPRPRPRPFETPRP
  shrunken log2 fold change: 0.21

## RRIRWRPPRLPRPRPRPIPEPRP
  shrunken log2 fold change: -0.0356

## RRIRHRPPRLPRPRPRPRVAPRP
  shrunken log2 fold change: 0.395

## RRIRGRPPRLPRPRPRPHTEPRP
  shrunken log2 fold change: -0.0408

## RRIRQRPPRLPRPRPRPRNQPRP
  shrunken log2 fold change: -0.329

## RRIRYRPPRLPRPRPRPTERPRP
  shrunken log2 fold change: -0.532

## RRIRWRPPRLPRPRPRPPRVPRP
  shrunken log2 fold change: 0.626

## RRIRSRPPRLPRPRPRPCMGPRP
  shrunken log2 fold change: -0.403

## RRIRWRPPRLPRPRPRPHRVPRP
  shrunken log2 fold change: -0.0781

## RRIRMRPPRLPRPRPRPHLWPRP
  shrunken log2 fold change: 0.374

## RRIRYRPPRLPRPRPRPTTKPRP
  shrunken log2 fold change: -0.179

## RRIRRRPPRLPRPRPRPKEQPRP
  shrunken log2 fold change: 0.118

## RRIRIRPPRLPRPRPRPHALPRP
  shrunken log2 fold change: -0.127

## RRIRRRPPRLPRPRPRPCAKPRP
  shrunken log2 fold change: 0.164

## RRIRFRPPRLPRPRPRPRWTPRP
  shrunken log2 fold change: 1.19

## RRIRTRPPRLPRPRPRPKYWPRP
  shrunken log2 fold change: -0.254

## RRIRYRPPRLPRPRPRPHVKPRP
  shrunken log2 fold change: -0.00472

## RRIRRRPPRLPRPRPRPSGPPRP
  shrunken log2 fold change: -0.0409

## RRIRNRPPRLPRPRPRPTNIPRP
  shrunken log2 fold change: -0.312

## RRIRPRPPRLPRPRPRPQVRPRP
  shrunken log2 fold change: -0.13

## RRIRVRPPRLPRPRPRPQQRPRP
  shrunken log2 fold change: 0.0774

## RRIRVRPPRLPRPRPRPGNAPRP
  shrunken log2 fold change: 0.133

## RRIRKRPPRLPRPRPRPQPAPRP
  shrunken log2 fold change: 0.783

## RRIRLRPPRLPRPRPRPSFAPRP
  shrunken log2 fold change: -0.067

## RRIRTRPPRLPRPRPRPEFLPRP
  shrunken log2 fold change: -0.536

## RRIRIRPPRLPRPRPRPGYEPRP
  shrunken log2 fold change: -0.237

## RRIRERPPRLPRPRPRPQKIPRP
  shrunken log2 fold change: -0.12

## RRIRHRPPRLPRPRPRPQHQPRP
  shrunken log2 fold change: -0.192

## RRIRLRPPRLPRPRPRPQYCPRP
  shrunken log2 fold change: 0.273

## RRIRDRPPRLPRPRPRPPKAPRP
  shrunken log2 fold change: -0.122

## RRIRARPPRLPRPRPRPNDDPRP
  shrunken log2 fold change: 0.54

## RRIRPRPPRLPRPRPRPYFFPRP
  shrunken log2 fold change: -0.593

## RRIRDRPPRLPRPRPRPMTNPRP
  shrunken log2 fold change: -0.184

## RRIRQRPPRLPRPRPRPAMFPRP
  shrunken log2 fold change: 0.0399

## RRIRDRPPRLPRPRPRPGEEPRP
  shrunken log2 fold change: 0.0844

## RRIRWRPPRLPRPRPRPWYVPRP
  shrunken log2 fold change: -0.396

## RRIRLRPPRLPRPRPRPINMPRP
  shrunken log2 fold change: -0.482

## RRIRHRPPRLPRPRPRPNIRPRP
  shrunken log2 fold change: 0.0598

## RRIRCRPPRLPRPRPRPHNTPRP
  shrunken log2 fold change: -0.246

## RRIRFRPPRLPRPRPRPCMIPRP
  shrunken log2 fold change: -0.118

## RRIRGRPPRLPRPRPRPCRAPRP
  shrunken log2 fold change: 0.495

## RRIRRRPPRLPRPRPRPGTTPRP
  shrunken log2 fold change: 0.462
